The record followed here is patent publication US20160279250, “METHODS FOR STRUCTURAL DETERMINATION OF SELENIUM DERIVATIZED NUCLEIC ACID COMPLEXES” (SeNA Research ,Inc., published 2016).

For this data set, the target named is RNase H (D132N, inactive mutant) (Bacillus halodurans, UniProt Q9KEI9 Q9KEI9:59-196, D132N). The data set can be described thus: structure; PDB 3TWH, 1.80 A; 5 mM MgCl2, MES pH 6.5, PEG 20000; substrate complex. As to conditions: tags: expressed in BL21(DE3) pLysE, 5 bp duplex with one-base overhang at both ends. The method, then: By using the sitting-drop vapor diffusion method at 25° C., the crystals were readily obtained from a mixture of the crystallization screen [Buffer: 0.1 M MES, pH 6.5; precipitant: 12% (w/v), PEG 20000].
We have synthesized Se-modified DNAs to investigate the DNA/RNA/RNase H complex. […] The complex of RNase H/RNA/Se-DNA (5′-UCGACA-3′/5′-AT-^SeG-TC-^SeGp-3′) was crystallized in a buffer containing 0.1 M MES (pH 6.5) and precipitant (12% w/v, PEG 20000). The crystals were also grown using the sitting drop vapor diffusion method. The crystals appeared within a week and reached their maximum size within a month. Two crystals were used to collect the MAD/SAD data sets. […] After the SAD or MAD dataset is collected from a single crystal, the selenium atoms can be located by direct methods and the phase can be determined similarly to the well-established protein strategy (Elkayam et al., Cell, 150:100-110 (2012); Ferre-D'Amare et al., Nature, 395:567-574 (1998); Hendrickson, Science, 254:51-58 (1991); Hendrickson, Trends Biochem. Sci., 25:637-643 (2000); Schirle and MacRae, Science, 336:1037-1040 (2012); Yang et al., Science 249:1398-1405 (1990)).
The Se-complex structure was finally determined (3TWH; 1.80 Å resolution; FIG. 1) via the selenium anomalous signal and MAD phasing. […] Moreover, the Se-complex structure has been determined by both MAD phasing and molecular replacement. […]

B1: Se-DNA/RNA duplex (DNA-Se, double Se) (DNA:RNA)
DNA: ATGTCG
RNA: UCGACA
modifications: 6-Se-dG at DNA positions 3 and 6; DNA 3'-phosphate
For B1, the binding result was “binds”.
